Data as given in patent publication US11833164B2, “Methods of treating Fabry disease in patients having a mutation in the GLA gene” (Amicus Therapeutics, Inc., priority 2019, dated 2023).

Tested on: mutant form of α-Gal A expressed in HEK-293 cells
Experiment: HEK assay (GLP HEK / Migalastat Amenability Assay): α-Gal A activity in lysates of transiently transfected HEK-293 cells incubated with or without 10 μM migalastat
Type: cell-based, human
Settings: for Absolute increase (% WT) / Relative increase: 10 μM migalastat versus baseline; for Baseline α-Gal A activity (% WT): absence of migalastat; for Baseline α-Gal A activity (% WT) / 10 μM migalastat α-Gal A activity (% WT): percentage of baseline wild-type α-Gal A activity; for Baseline α-Gal A activity (% WT) / Baseline α-Gal A activity / 10 μM migalastat α-Gal A activity / 10 μM migalastat α-Gal A activity (% WT): mean ± SEM; for Baseline α-Gal A activity / 10 μM migalastat α-Gal A activity: lysates of HEK-293 cells transiently transfected with the mutant form; for Baseline α-Gal A activity: incubated 5 days in absence of migalastat; for 10 μM migalastat α-Gal A activity: incubated 5 days with 10 μM migalastat; for 10 μM migalastat α-Gal A activity (% WT): with 10 μM migalastat, 5 days
Procedure, shortened: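 Activity reported as 4-MU released (nmol/mg/hr), mean±SEM, from lysates of transiently transfected HEK-293 cells expressing mutant α-Gal A, cultured with or without 10 μM migalastat.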

Molecule	Absolute increase (% WT)	Relative increase	Baseline α-Gal A activity (% WT)	Baseline α-Gal A activity [nmol/mg/h]	10 μM migalastat α-Gal A activity [nmol/mg/h]	10 μM migalastat α-Gal A activity (% WT)
V369F (protein) MQLRNPELHLGCALALRFLALVSWDIPGARALDNGLARTPTMGWLHWERFMCNLDCQEEPDSCISEKLFMEMAELMVSEGWKDAGYEYLCIDDCWMAPQRDSEGRLQADPQRFPHGIRQLANYVHSKGLKLGIYADVGNKTCAGFPGSFGYYDIDAQTFADWGVDLLKFDGCYCDSLENLADGYKHMSLALNRTGRSIVYSCEWPLYMWPFQKPNYTEIRQYCNHWRNFADIDDSWKSIKSILDWTSFNQERIVDVAGPGGWNDPDMLVIGNFGLSWNQQVTQMALWAIMAAPLFMSNDLRHISPQAKALLQDKDVIAINQDPLGKQGYQLRQGDNFEVWERPLSGLAWAVAMINRQEIGGPRSYTIAFASLGKGVACNPACFITQLLPVKRKLGFYEWTSRLRSHINPTGTVLLQLENTMQMSLKDLL	19.6	1.5	37.7 ± 2.8	11912 ± 1197	18282 ± 1960	57.3 ± 4.8
A370V (protein) MQLRNPELHLGCALALRFLALVSWDIPGARALDNGLARTPTMGWLHWERFMCNLDCQEEPDSCISEKLFMEMAELMVSEGWKDAGYEYLCIDDCWMAPQRDSEGRLQADPQRFPHGIRQLANYVHSKGLKLGIYADVGNKTCAGFPGSFGYYDIDAQTFADWGVDLLKFDGCYCDSLENLADGYKHMSLALNRTGRSIVYSCEWPLYMWPFQKPNYTEIRQYCNHWRNFADIDDSWKSIKSILDWTSFNQERIVDVAGPGGWNDPDMLVIGNFGLSWNQQVTQMALWAIMAAPLFMSNDLRHISPQAKALLQDKDVIAINQDPLGKQGYQLRQGDNFEVWERPLSGLAWAVAMINRQEIGGPRSYTIAVVSLGKGVACNPACFITQLLPVKRKLGFYEWTSRLRSHINPTGTVLLQLENTMQMSLKDLL	20.6	1.5	40.1 ± 3.1	15754 ± 1222	24151 ± 1591	60.7 ± 3.5
V369G (protein) MQLRNPELHLGCALALRFLALVSWDIPGARALDNGLARTPTMGWLHWERFMCNLDCQEEPDSCISEKLFMEMAELMVSEGWKDAGYEYLCIDDCWMAPQRDSEGRLQADPQRFPHGIRQLANYVHSKGLKLGIYADVGNKTCAGFPGSFGYYDIDAQTFADWGVDLLKFDGCYCDSLENLADGYKHMSLALNRTGRSIVYSCEWPLYMWPFQKPNYTEIRQYCNHWRNFADIDDSWKSIKSILDWTSFNQERIVDVAGPGGWNDPDMLVIGNFGLSWNQQVTQMALWAIMAAPLFMSNDLRHISPQAKALLQDKDVIAINQDPLGKQGYQLRQGDNFEVWERPLSGLAWAVAMINRQEIGGPRSYTIAGASLGKGVACNPACFITQLLPVKRKLGFYEWTSRLRSHINPTGTVLLQLENTMQMSLKDLL	5.5	3.3	2.6 ± 0.2	803 ± 59	2628 ± 291	8.1 ± 0.7
A370P (protein) MQLRNPELHLGCALALRFLALVSWDIPGARALDNGLARTPTMGWLHWERFMCNLDCQEEPDSCISEKLFMEMAELMVSEGWKDAGYEYLCIDDCWMAPQRDSEGRLQADPQRFPHGIRQLANYVHSKGLKLGIYADVGNKTCAGFPGSFGYYDIDAQTFADWGVDLLKFDGCYCDSLENLADGYKHMSLALNRTGRSIVYSCEWPLYMWPFQKPNYTEIRQYCNHWRNFADIDDSWKSIKSILDWTSFNQERIVDVAGPGGWNDPDMLVIGNFGLSWNQQVTQMALWAIMAAPLFMSNDLRHISPQAKALLQDKDVIAINQDPLGKQGYQLRQGDNFEVWERPLSGLAWAVAMINRQEIGGPRSYTIAVPSLGKGVACNPACFITQLLPVKRKLGFYEWTSRLRSHINPTGTVLLQLENTMQMSLKDLL	16.9	1.5	33.9 ± 2.8	10431 ± 975	15618 ± 1776	50.7 ± 5.4
V369I (protein) MQLRNPELHLGCALALRFLALVSWDIPGARALDNGLARTPTMGWLHWERFMCNLDCQEEPDSCISEKLFMEMAELMVSEGWKDAGYEYLCIDDCWMAPQRDSEGRLQADPQRFPHGIRQLANYVHSKGLKLGIYADVGNKTCAGFPGSFGYYDIDAQTFADWGVDLLKFDGCYCDSLENLADGYKHMSLALNRTGRSIVYSCEWPLYMWPFQKPNYTEIRQYCNHWRNFADIDDSWKSIKSILDWTSFNQERIVDVAGPGGWNDPDMLVIGNFGLSWNQQVTQMALWAIMAAPLFMSNDLRHISPQAKALLQDKDVIAINQDPLGKQGYQLRQGDNFEVWERPLSGLAWAVAMINRQEIGGPRSYTIAIASLGKGVACNPACFITQLLPVKRKLGFYEWTSRLRSHINPTGTVLLQLENTMQMSLKDLL	19.6	1.2	79.7 ± 6.8	30094 ± 3211	36630 ± 2373	99.3 ± 5.5
A370G (protein) MQLRNPELHLGCALALRFLALVSWDIPGARALDNGLARTPTMGWLHWERFMCNLDCQEEPDSCISEKLFMEMAELMVSEGWKDAGYEYLCIDDCWMAPQRDSEGRLQADPQRFPHGIRQLANYVHSKGLKLGIYADVGNKTCAGFPGSFGYYDIDAQTFADWGVDLLKFDGCYCDSLENLADGYKHMSLALNRTGRSIVYSCEWPLYMWPFQKPNYTEIRQYCNHWRNFADIDDSWKSIKSILDWTSFNQERIVDVAGPGGWNDPDMLVIGNFGLSWNQQVTQMALWAIMAAPLFMSNDLRHISPQAKALLQDKDVIAINQDPLGKQGYQLRQGDNFEVWERPLSGLAWAVAMINRQEIGGPRSYTIAVGSLGKGVACNPACFITQLLPVKRKLGFYEWTSRLRSHINPTGTVLLQLENTMQMSLKDLL	22.9	1.3	78.1 ± 4.4	24835 ± 2637	31805 ± 3001	101 ± 5.4
V369L (protein) MQLRNPELHLGCALALRFLALVSWDIPGARALDNGLARTPTMGWLHWERFMCNLDCQEEPDSCISEKLFMEMAELMVSEGWKDAGYEYLCIDDCWMAPQRDSEGRLQADPQRFPHGIRQLANYVHSKGLKLGIYADVGNKTCAGFPGSFGYYDIDAQTFADWGVDLLKFDGCYCDSLENLADGYKHMSLALNRTGRSIVYSCEWPLYMWPFQKPNYTEIRQYCNHWRNFADIDDSWKSIKSILDWTSFNQERIVDVAGPGGWNDPDMLVIGNFGLSWNQQVTQMALWAIMAAPLFMSNDLRHISPQAKALLQDKDVIAINQDPLGKQGYQLRQGDNFEVWERPLSGLAWAVAMINRQEIGGPRSYTIALASLGKGVACNPACFITQLLPVKRKLGFYEWTSRLRSHINPTGTVLLQLENTMQMSLKDLL	30.3	1.4	74.2 ± 3.7	27680 ± 1912	38458 ± 2367	104.5 ± 5.6
A370T (protein) MQLRNPELHLGCALALRFLALVSWDIPGARALDNGLARTPTMGWLHWERFMCNLDCQEEPDSCISEKLFMEMAELMVSEGWKDAGYEYLCIDDCWMAPQRDSEGRLQADPQRFPHGIRQLANYVHSKGLKLGIYADVGNKTCAGFPGSFGYYDIDAQTFADWGVDLLKFDGCYCDSLENLADGYKHMSLALNRTGRSIVYSCEWPLYMWPFQKPNYTEIRQYCNHWRNFADIDDSWKSIKSILDWTSFNQERIVDVAGPGGWNDPDMLVIGNFGLSWNQQVTQMALWAIMAAPLFMSNDLRHISPQAKALLQDKDVIAINQDPLGKQGYQLRQGDNFEVWERPLSGLAWAVAMINRQEIGGPRSYTIAVTSLGKGVACNPACFITQLLPVKRKLGFYEWTSRLRSHINPTGTVLLQLENTMQMSLKDLL	17.6	1.2	79.9 ± 4.3	25024 ± 1951	30276 ± 2364	97.5 ± 6.1
A370D (protein) MQLRNPELHLGCALALRFLALVSWDIPGARALDNGLARTPTMGWLHWERFMCNLDCQEEPDSCISEKLFMEMAELMVSEGWKDAGYEYLCIDDCWMAPQRDSEGRLQADPQRFPHGIRQLANYVHSKGLKLGIYADVGNKTCAGFPGSFGYYDIDAQTFADWGVDLLKFDGCYCDSLENLADGYKHMSLALNRTGRSIVYSCEWPLYMWPFQKPNYTEIRQYCNHWRNFADIDDSWKSIKSILDWTSFNQERIVDVAGPGGWNDPDMLVIGNFGLSWNQQVTQMALWAIMAAPLFMSNDLRHISPQAKALLQDKDVIAINQDPLGKQGYQLRQGDNFEVWERPLSGLAWAVAMINRQEIGGPRSYTIAVDSLGKGVACNPACFITQLLPVKRKLGFYEWTSRLRSHINPTGTVLLQLENTMQMSLKDLL	22.4	1.2	87.5 ± 6.1	27098 ± 2504	33279 ± 2473	109.8 ± 6.8
